The values that follow come from publication PMC7878818, “Structural mechanism of bivalent histone H3K4me3K9me3 recognition by the Spindlin1/C11orf84 complex in rRNA transcription activation” (Nature Communications, 2021).

Holding throughout (conditions): both partners purified
Experiment [1] has as its target T1, Spindlin1 (aa: 50–262) (human, UniProt Q9Y657 50-262).
T1 construct: The methods describe only co-expression plasmids with C11orf84; also called Spindlin1 alone
Put plainly: anion-exchange chromatography; co-expressed Spindlin1 (aa 50-262) and C11orf84 (aa 219-305); SDS-PAGE of the peak fraction.

The next experiment concerns the target T2, Spindlin1 (aa: 50-262) (human).
T2 construct: for the ITC of 'Spindlin1' alone the limits are not restated
Briefly: ITC; 25 °C, MicroCal ITC200; 20 mM HEPES pH 7.5, 150 mM NaCl; 0.8 mM H3 peptide injected into 50 μM protein or complex in the sample cell. (In general: Isothermal titration calorimetry measures the heat released or taken up as one component is titrated into another.)

Experiment [2] concerns the target T1, Spindlin1 (aa: 50–262). Put plainly: crystal structure; 1:1.5 molar ratio of Spindlin1 (aa 50-262)/C11orf84 (aa 253-295) binary complex and H3K4me3K9me3 (A1-G12) peptide; hanging drop, 291 K; 1.60 Å.
The target of a further experiment is T3, Spindlin4 (human).
T3 construct: human Spindlin4; Construct, host and purification of the Spindlin4 used for ITC are told nowhere
T3 chain: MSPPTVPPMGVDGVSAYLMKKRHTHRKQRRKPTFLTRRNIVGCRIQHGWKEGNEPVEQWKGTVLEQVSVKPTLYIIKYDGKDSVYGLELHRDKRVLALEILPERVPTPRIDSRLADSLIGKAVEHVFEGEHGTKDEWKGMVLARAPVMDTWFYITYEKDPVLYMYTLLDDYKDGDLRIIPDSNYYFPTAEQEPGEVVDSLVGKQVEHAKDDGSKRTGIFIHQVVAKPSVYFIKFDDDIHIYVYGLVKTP
Briefly: ITC; 25 °C, MicroCal ITC200; 20 mM HEPES pH 7.5, 150 mM NaCl; 0.8 mM H3 peptide injected into 50 μM protein or complex in the sample cell.

In experiment [3] the target is T4, Spindlin1 (aa: 50–262)/C11orf84 (aa: 253–295) binary complex (human, UniProt Q9Y657 50-262; Q9BUA3 253-295).
T4 construct: This binary complex was mixed with the H3K4me3K9me3 (A1-G12) peptide for crystallisation; also called Spindlin1/C11orf84
Put plainly: crystal structure; 1:1.5 molar ratio of Spindlin1 (aa 50-262)/C11orf84 (aa 253-295) binary complex and H3K4me3K9me3 (A1-G12) peptide; hanging drop, 291 K; 1.60 Å.

Experiment [4] has as its target T1, Spindlin1 (aa: 50–262). Briefly: ITC; 25 °C, MicroCal ITC200; 20 mM HEPES pH 7.5, 150 mM NaCl; 50 μM Spindlin1 or Spindlin1/C11orf84 complex in the cell, 0.8 mM peptide injected.

Square brackets hold non-standard residues; d marks the D form. Ends that are not written are not given here. Me3 = trimethyl group on lysine (trimethyl-lysine); Arg(Me2a) = CN(C)C(=N)NCCC[C@H](N)C(=O)O; Lys(Me3) = C[N+](C)(C)CCCC[C@H](N)C(=O)O

T2 sequence (chain, as listed by the source): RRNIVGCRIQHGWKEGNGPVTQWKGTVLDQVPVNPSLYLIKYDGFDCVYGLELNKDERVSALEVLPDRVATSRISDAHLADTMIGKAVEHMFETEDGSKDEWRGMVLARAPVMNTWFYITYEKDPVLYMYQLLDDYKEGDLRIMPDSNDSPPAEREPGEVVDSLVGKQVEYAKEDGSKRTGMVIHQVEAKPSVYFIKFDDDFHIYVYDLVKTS
T1 sequence (Q9Y657 50-262): as the sequence (chain, as listed by the source) above
T4 sequence (Q9Y657 50-262, one chain of several): as the sequence (chain, as listed by the source) above

B1: C11orf84 (aa: 219–305) (domain or fragment, human, UniProt Q9BUA3 219-305, looked up)
chain: WKEPPGEEPVRKKRGRPMTKNLDPDPEPPSPDSPTETFAAPAEVRHFTDGSFPAGFVLQLFSHTQLRGPDSKDSPKDREVAEGGLPR
As for B1, the binding result with Spindlin1 (aa: 50–262) [1] is “binds”.

B2: H3K4me3R8me2a peptide, H3 (1-12) (peptide)
peptide: ARTK(Me3)QTAR(asymmetric Me2)KSTG
notes: histone H3 N-terminal tail, residues 1-12
The Kd is the concentration at which binding is half-saturated. Lower therefore signals tighter binding. What is called stoichiometry N is a count of units in the complex or per binding partner. As for B2, in the experiment with Spindlin1 (aa: 50-262), the Kd stood at 170 nM and the “stoichiometry N” value was determined as 1.02.

B3: C11orf84 (aa: 253–295) (domain or fragment, human, UniProt Q9BUA3 253-295, looked up)
chain: TETFAAPAEVRHFTDGSFPAGFVLQLFSHTQLRGPDSKDSPKD
notes: T255-Q283 defined in the electron density; The cloning of this fragment is not described; It is named only as part of the binary complex used for crystallisation; also called C11orf84 fragment; C11orf84 segment
As for B3, in the experiment with Spindlin1 (aa: 50–262) [2], the binding result was “binds”.

B4: H3K4me3K9me3 peptide, H3 (1-12) (peptide)
peptide: ARTK(Me3)QTARK(Me3)STG
notes: histone H3 N-terminal tail, residues 1-12; also called H3K4me3K9me3 (A1-G12) peptide
In the case of B4, the “stoichiometry N” value with Spindlin1 (aa: 50-262) came out at 1.04. The molecule also gave a Kd in the experiment with Spindlin4 of 41 ± 5 nM.

B5: H3K4me3K9me3 (A1-G12) peptide (peptide, UniProt P68431 2-13, looked up)
peptide: ARTK(Me3)QTARK(Me3)STG
notes: histone H3 residues A1-G12; This is the peptide of the crystal structure; also called H3K4me3K9me3 peptide; methyl histone peptide
In the case of B5, the binding result (in experiment [3]; with Spindlin1 (aa: 50–262) [2]) was “binds” each time. Take ART[Lys(Me3)]QTA[Arg(Me2a)]KSTG [H3K4me3R8me2a peptide]: in the experiment with Spindlin1 (aa: 50–262) [4], the “fold by which the affinity for H3K4me3K9me3 is higher than for this peptide” value is ~4 fold.
